Results taken from the RNAGym collection of RNA variant scans (doi:10.1021/acssynbio.7b00057).

B1: Pistol ribozyme (parent)
chain: GGGUCGUUGUUCCAUAAUCGCGUGGAUAUGGCACGCAAGUUUCUACCGGGCACCGUAAAUGUCCGACUGGAGCCGUUCGGGCGGCUAUAAACAGACCUCAGGCCCGAAGCGUGGCGGCACCUGCCGCCGGUGGUAAAAAAGAUCGGAAGAGCACACGUCU

Variants of: B1
Assay: aptazyme ON/OFF ratio, guanine; higher = stronger switching; co-transcriptional cleavage with and without guanine
For U8G U10A U11G C12U C13A, the “aptazyme ON/OFF ratio” value was 1.15. With U8G U10A U11G C12U C13G the “aptazyme ON/OFF ratio” value was 1.22. In the case of G9A U10A U11C C12G C13G, the “aptazyme ON/OFF ratio” value is reported as 1.27. For G9A U10A U11C C12G C13A, the “aptazyme ON/OFF ratio” value was 1.31. With G9A U10A U11C C12G C13U the “aptazyme ON/OFF ratio” value was 1.41. In the case of U8G U10G U11G C12A C13A, the “aptazyme ON/OFF ratio” value is reported as 1.08. In the case of U8G U10G U11G C12A C13G, the “aptazyme ON/OFF ratio” value is reported as 1.05. For U8G U10G U11G C12A C13U, the “aptazyme ON/OFF ratio” value was 1.18. With U8G G9U U11C C12U the “aptazyme ON/OFF ratio” value was 1.04. In the case of U8G G9U U11C C12A, the “aptazyme ON/OFF ratio” value is reported as 1.12. With U8G G9U U11C C12G the “aptazyme ON/OFF ratio” value was 1.12. In the case of U8G U10G U11A C12U C13A, the “aptazyme ON/OFF ratio” value is reported as 1.14. For U8G U10G U11A C12U C13G, the “aptazyme ON/OFF ratio” value was 1.22. With U8G U10G U11A C12U C13U the “aptazyme ON/OFF ratio” value was 1.26. With G9A U10A C12A C13U the “aptazyme ON/OFF ratio” value was 1.36. In the case of G9A U10A C12A C13G, the “aptazyme ON/OFF ratio” value is reported as 1.06. In the case of G9A U10A C12A C13A, the “aptazyme ON/OFF ratio” value is reported as 1.61. In the case of U8G U10C U11C, the “aptazyme ON/OFF ratio” value is reported as 1.19. In the case of U8G U10C U11G, the “aptazyme ON/OFF ratio” value is reported as 1.75. In the case of U8G U10C U11A, the “aptazyme ON/OFF ratio” value is reported as 1.89. In the case of U8G U10G U11A C13U, the “aptazyme ON/OFF ratio” value is reported as 1.33. With U8G U10G U11A C13G the “aptazyme ON/OFF ratio” value was 1.18. With U8G U10G U11A C13A the “aptazyme ON/OFF ratio” value was 1.16. For G9A C12U C13U, the “aptazyme ON/OFF ratio” value was 1.32. For G9A C12U C13G, the “aptazyme ON/OFF ratio” value was 1.62. In the case of G9A C12U C13A, the “aptazyme ON/OFF ratio” value is reported as 1.46. In the case of G9A U10A C12U C13U, the “aptazyme ON/OFF ratio” value is reported as 1.4. With G9A U10A C12U C13A the “aptazyme ON/OFF ratio” value was 1.39. With G9A U10A C12U C13G the “aptazyme ON/OFF ratio” value was 1.24. With U8G U10G C12U the “aptazyme ON/OFF ratio” value was 1.15. For U8G U10G C12A, the “aptazyme ON/OFF ratio” value was 1.39. With U8G U10G C12G the “aptazyme ON/OFF ratio” value was 1.3. For U8G U11G C12U C13G, the “aptazyme ON/OFF ratio” value was 1.24. With U8G U11G C12U C13A the “aptazyme ON/OFF ratio” value was 1.22. For U8G U11G C12U C13U, the “aptazyme ON/OFF ratio” value was 1.21. In the case of G9A U10A U11C, the “aptazyme ON/OFF ratio” value is reported as 1.08. In the case of G9A U10A U11A, the “aptazyme ON/OFF ratio” value is reported as 2.7. With G9A U10A U11A C12A C13G the “aptazyme ON/OFF ratio” value was 1.25. For G9A U10A U11A C12A C13U, the “aptazyme ON/OFF ratio” value was 1.97. For G9A U10A U11A C12A C13A, the “aptazyme ON/OFF ratio” value was 1.4. In the case of U8G U11C C12A C13A, the “aptazyme ON/OFF ratio” value is reported as 1.23. In the case of U8G U11C C12A C13G, the “aptazyme ON/OFF ratio” value is reported as 1.23. With U8G U11C C12A C13U the “aptazyme ON/OFF ratio” value was 1.14. With U8G U10C U11G C12U C13G the “aptazyme ON/OFF ratio” value was 1.15. With U8G U10C U11G C12U C13A the “aptazyme ON/OFF ratio” value was 1.14. In the case of U8G U10C U11G C12U C13U, the “aptazyme ON/OFF ratio” value is reported as 1.13. In the case of U8G U10A U11C C12G C13A, the “aptazyme ON/OFF ratio” value is reported as 1.13. For U8G U10A U11C C12G C13G, the “aptazyme ON/OFF ratio” value was 1.33. For U8G U10A U11C C12G C13U, the “aptazyme ON/OFF ratio” value was 1.33. In the case of G9A C13G, the “aptazyme ON/OFF ratio” value is reported as 1.07. With G9A C13U the “aptazyme ON/OFF ratio” value was 1.52. For G9A C13A, the “aptazyme ON/OFF ratio” value was 1.45. For G9A U10A U11C C12A C13G, the “aptazyme ON/OFF ratio” value was 1.23. With G9A U10A U11C C12A C13U the “aptazyme ON/OFF ratio” value was 1.41. With G9A U10A U11C C12A C13A the “aptazyme ON/OFF ratio” value was 1.38. In the case of G9A, the “aptazyme ON/OFF ratio” value is reported as 3.41. For U8G U10G U11G C12U C13A, the “aptazyme ON/OFF ratio” value was 1.42. For U8G U10G U11G C12U C13U, the “aptazyme ON/OFF ratio” value was 1.34. With U8G U10G U11G C12U C13G the “aptazyme ON/OFF ratio” value was 1.31. With G9A C12A C13G the “aptazyme ON/OFF ratio” value was 1.12. With G9A C12A C13U the “aptazyme ON/OFF ratio” value was 1.38. With G9A C12A C13A the “aptazyme ON/OFF ratio” value was 1.45. For U8G U10C U11G C12G, the “aptazyme ON/OFF ratio” value was 1.23. In the case of U8G U10C U11G C12U, the “aptazyme ON/OFF ratio” value is reported as 1.33. With U8G U10C U11G C12A the “aptazyme ON/OFF ratio” value was 1.35. With U8G U10G C12A C13A the “aptazyme ON/OFF ratio” value was 1.26. In the case of U8G U10G C12A C13G, the “aptazyme ON/OFF ratio” value is reported as 1.19. For U8G U10G C12A C13U, the “aptazyme ON/OFF ratio” value was 1.17. For U8G U10A U11C, the “aptazyme ON/OFF ratio” value was 1.02. For U8G U10A U11A, the “aptazyme ON/OFF ratio” value was 1.71. For U8G U10A U11G, the “aptazyme ON/OFF ratio” value was 1.34. In the case of G9A U10A, the “aptazyme ON/OFF ratio” value is reported as 3.05. For U8G U11A C13G, the “aptazyme ON/OFF ratio” value was 1.11. For U8G U11A C13A, the “aptazyme ON/OFF ratio” value was 1.24. In the case of U8G U11A C13U, the “aptazyme ON/OFF ratio” value is reported as 1.33. For U8G G9U U11C C12U C13U, the “aptazyme ON/OFF ratio” value was 1.03. In the case of U8G G9U U11C C12U C13G, the “aptazyme ON/OFF ratio” value is reported as 1.08. With U8G G9U U11C C12U C13A the “aptazyme ON/OFF ratio” value was 1.06. In the case of U8G U10G U11C C13G, the “aptazyme ON/OFF ratio” value is reported as 1.02. In the case of U8G U10G U11C C13A, the “aptazyme ON/OFF ratio” value is reported as 1.04. In the case of U8G U10G U11C C13U, the “aptazyme ON/OFF ratio” value is reported as 1.04. For U8G U11C C12U, the “aptazyme ON/OFF ratio” value was 1.26. With U8G U11C C12A the “aptazyme ON/OFF ratio” value was 1.13. In the case of U8G U11C C12G, the “aptazyme ON/OFF ratio” value is reported as 1.3.
